Test system: T47D cells
Test: Mammosphere formation in T47D cells
Format: cell-based, human
Details: T47D cells, EGF 20 ng/ml, 14 days
Description: Primary Mammospheres: Adherent cells were washed with PBS and dissociated enzymatically in 0.25% trypsin-EDTA (Invitrogen Corporation, Carlsbad, Calif.). Cells were sieved through a 40-μm sieve (BD FALCON, BD Biosciences, Bedford, Mass.) and analyzed microscopically for single-cellularity. Single cells were plated in ultra-low attachment plates (Corning, Inc., Corning, N.Y.) and cultured in a humid incubator. Cells were grown in a serum-free mammary epithelial basal medium (MEBM; Lonza Group, Basel, Switzerland) containing 1% B27 Supplement (Invitrogen Corporation, Carlsbad, Calif.), 1% penicillin-streptomycin (Invitrogen Corporation, Carlsbad, Calif.), 5 μg/ml insulin (Invitrogen Corporation, Carlsbad, Calif.), 20 ng/ml EGF (Sigma-Aldrich, St. Louis, Mo.), 1 ng/ml hydrocortisone (Sigma-Aldrich, St. Louis, Mo.), and 100 μM β-mercaptoethanol. […] Mammosphere Forming Efficiency (MFE) % was calculated by the number of mammospheres per well/number of cells seeded per well.
Secondary Mammospheres: Primary mammospheres were collected by centrifugation (5 min, 1000 rpm), and dissociated enzymatically in 0.25% typsin-EDTA. Cells were sieved through a 40-μm tip strainer (Bel-Art SP Scienceware, South Wayne, N.J.) and analyzed microscopically for single-cellularity. […] Mammosphere Forming Efficiency (MFE) % was calculated by the number of mammospheres per well/number of cells seeded per well. […]

B1: EGF: growth factor in mammosphere culture media, 20 ng/ml (protein, UniProt P01133 23-1207, looked up)
Pro-epidermal growth factor: PQHWSCPEGTLAGNGNSTCVGPAPFLIFSHGNSIFRIDTEGTNYEQLVVDAGVSVIMDFHYNEKRIYWVDLERQLLQRVFLNGSRQERVCNIEKNVSGMAINWINEEVIWSNQQEGIITVTDMKGNNSHILLSALKYPANVAVDPVERFIFWSSEVAGSLYRADLDGVGVKALLETSEKITAVSLDVLDKRLFWIQYNREGSNSLICSCDYDGGSVHISKHPTQHNLFAMSLFGDRIFYSTWKMKTIWIANKHTGKDMVRINLHSSFVPLGELKVVHPLAQPKAEDDTWEPEQKLCKLRKGNCSSTVCGQDLQSHLCMCAEGYALSRDRKYCEDVNECAFWNHGCTLGCKNTPGSYYCTCPVGFVLLPDGKRCHQLVSCPRNVSECSHDCVLTSEGPLCFCPEGSVLERDGKTCSGCSSPDNGGCSQLCVPLSPVSWECDCFPGYDLQLDEKSCAASGPQPFLLFANSQDIRHMHFDGTDYGTLLSQQMGMVYALDHDPVENKIYFAHTALKWIERANMDGSQRERLIEEGVDVPEGLAVDWIGRRFYWTDRGKSLIGRSDLNGKRSKIITKENISQPRGIAVHPMAKRLFWTDTGINPRIESSSLQGLGRLVIASSDLIWPSGITIDFLTDKLYWCDAKQSVIEMANLDGSKRRRLTQNDVGHPFAVAVFEDYVWFSDWAMPSVMRVNKRTGKDRVRLQGSMLKPSSLVVVHPLAKPGADPCLYQNGGCEHICKKRLGTAWCSCREGFMKASDGKTCLALDGHQLLAGGEVDLKNQVTPLDILSKTRVSEDNITESQHMLVAEIMVSDQDDCAPVGCSMYARCISEGEDATCQCLKGFAGDGKLCSDIDECEMGVPVCPPASSKCINTEGGYVCRCSEGYQGDGIHCLDIDECQLGEHSCGENASCTNTEGGYTCMCAGRLSEPGLICPDSTPPPHLREDDHHYSVRNSDSECPLSHDGYCLHDGVCMYIEALDKYACNCVVGYIGERCQYRDLKWWELRHAGHGQQQKVIVVAVCVVVLVMLLLLSLWGAHYYRTQKLLSKNPKNPYEESSRDVRSRRPADTEDGMSSCPQPWFVVIKEHQDLKNGGQPVAGEDGQAADGSMQPTSWRQEPQLCGMGTEQGCWIPVSSDKGSCPQVMERSFHMPSYGTQTLEGGVEKPHSLLSANPLWQQRALDPPHQMELTQ
modifications: Pro-epidermal growth factor
notes: growth factor in mammosphere culture media, 20 ng/ml
In the case of B1, the “mammosphere formation on removal and add-back of EGF” value is reported as “clear requirement for growth factor signaling”.

From patent US10942183B2, “Methods of detecting progesterone receptor and of detecting an expression level” (REGENTS OF THE UNIVERSITY OF MINNESOTA, priority 2017, dated 2021)
